Data reported in article PMC8162780.

Legend:
purified protein [1] = substrate: CCOCC(O)CO; experiment: purified protein; assay type: biochemical, Geobacillus stearothermophilus; settings: 1 mM NAD+, 100 mM sodium phosphate pH 7, 30 °C, free enzyme
purified protein [2] = substrate: OCC(O)CO; experiment: purified protein; assay type: biochemical, Geobacillus stearothermophilus; settings: 1 mM NAD+, 100 mM sodium phosphate pH 7, 30 °C, free enzyme
purified protein [3] = substrate: OCC(O)COCC(F)(F)F; experiment: purified protein; assay type: biochemical, Geobacillus stearothermophilus; settings: 1 mM NAD+, 100 mM sodium phosphate pH 7, 30 °C, free enzyme
purified protein [4] = substrate: OCC(O)COc1ccccc1; experiment: purified protein; assay type: biochemical, Geobacillus stearothermophilus; settings: 1 mM NAD+, 100 mM sodium phosphate pH 7, 30 °C, free enzyme
[5] = substrate: OCC(O)COc1ccccc1; experiment: purified protein, by the assay type; settings: 30.0 °C

B1: BsGlyDH (GlyDH from Bacillus stearothermophilus) (Geobacillus stearothermophilus) (protein)
chain: MAAERVFISPAKYVQGKNVITKIANYLEGIGNKTVVIADEIVWKIAGHTIVNELKKGNIAAEEVVFSGEASRNEVERIANIARKAEAAIVIGVGGGKTLDTAKAVADELDAYIVIVPTAASTDAPTSALSVIYSDDGVFESYRFYKKNPDLVLVDTKIIANAPPRLLASGIADALATWVEARSVIKSGGKTMAGGIPTIAAEAIAEKCEQTLFKYGKLAYESVKAKVVTPALEAVVEANTLLSGLGFESGGLAAAHAIHNGFTALEGEIHHLTHGEKVAFGTLVQLALEEHSQQEIERYIELYLSLDLPVTLEDIKLKDASREDILKVAKAATAEGETIHNAFNVTADDVADAIFAADQYAKAYKEKHRK
B1 gave a Km (purified protein [1]) of 13.4 ± 0.4 mM, a Vmax (purified protein [1]) of 0.036 µmol/min/mg and a kcat (purified protein [1]) of 0.19 ± 0.003 s⁻¹. The kcat/Km (purified protein [1]) was 14 M⁻¹ s⁻¹, the Km (purified protein [2]) was 50 ± 3 mM and the Vmax (purified protein [2]) was 1.4 µmol/min/mg. It also gave a kcat (purified protein [2]) of 7.4 ± 0.2 s⁻¹, a kcat/Km (purified protein [2]) of 148 M⁻¹ s⁻¹ and a Km (purified protein [3]) of 78 ± 8 mM. It also gave a Vmax (purified protein [3]) of 0.06 µmol/min/mg, a kcat (purified protein [3]) of 0.32 ± 0.01 s⁻¹ and a kcat/Km (purified protein [3]) of 4 M⁻¹ s⁻¹. It also gave a Km (purified protein [4]) of 7 ± 2 mM, a Vmax (purified protein [4]) of 0.14 µmol/min/mg and a kcat (purified protein [4]) of 0.7 ± 0.1 s⁻¹. For the same protein, the kcat/Km (purified protein [4]) was 112 M⁻¹ s⁻¹ and the Km [5] was 6.6 mM.
